# System: T1, NC(=O)NC(N)=O
# T1 construct: six-histidine tag (C); made in house; host or cells: Escherichia coli BL21(DE3)
# Test: Inhibition of biuret hydrolase by urea, kinetic constants
# Format: biochemical
# Sequence of biuret hydrolase (Rhizobium johnstonii 3841) (chain, as listed by the source): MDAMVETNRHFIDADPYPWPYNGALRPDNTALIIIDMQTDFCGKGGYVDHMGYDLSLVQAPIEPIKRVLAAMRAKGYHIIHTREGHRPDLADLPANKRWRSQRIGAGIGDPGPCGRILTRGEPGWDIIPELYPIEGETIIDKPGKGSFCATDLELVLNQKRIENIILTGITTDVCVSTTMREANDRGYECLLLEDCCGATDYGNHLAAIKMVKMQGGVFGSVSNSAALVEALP
substance,measurement,value
biuret hydrolase (Rhizobium johnstonii 3841),Km,23 µM

# From patent publication US20220389465A1, “METHODS OF REDUCING BIURET IN UREA COMPOSITIONS” (Regents of the University of Minnesota, priority 2019, published 2022)
